Reference: PMC8400696

Legend:
[1] = biological target: MUC1 variable tandem repeat (VTR) peptide (UniProt P15941); experiment: Ru(phen)2dppz fluorescence displacement; details: Ru dye; Ru displacement: 50 nM aptamer in binding solution (composition not given), excitation 434 nm, emission 610 nm; thermal assay: binding solution, 1 h ambient …
[2] = system: lipase; experiment: Ru(phen)2dppz fluorescence displacement; details: no displacement up to 250 µM; aptamer given as variable region, S11b inferred; Ru displacement: 50 nM aptamer in binding solution (composition not given), excitation 434 nm, emission 610 nm; thermal assay: binding solution, 1 h ambient …
[3] = system: S11 (S11a) (DNA, aptamer) GGGAGACAAGAATAAACGCTCAAGGCAACATACTGTAAAGCTCAGGACTTCGACAGGAGGCTCACAACAGGC; experiment: fluorescence titration of dye into aptamer, sigmoidal fit; details: binding solution (composition not given); 50 nM aptamer; ex 434 nm, em 610 nm; apparent
[4] = system: S51 (S51a) (DNA, aptamer) GGGAGACAAGAATAAACGCTCAAAGATAAAAAGGCTGTCTGAAAATTTTCGACAGGAGGCTCACAACAGGC; experiment: as above; details: binding solution (composition not given); 50 nM aptamer; ex 434 nm, em 610 nm; apparent
[5] = system: S75 (S75a) (DNA, aptamer) GGGAGACAAGAATAAACGCTCAACTGGTATCTATATGAAGGTTGTAGCTTCGACAGGAGGCTCACAACAGGC; experiment: as above; details: binding solution (composition not given); 50 nM aptamer; ex 434 nm, em 610 nm; apparent
[6] = biological target: T1, MUC1/Y 20mer peptide (UniProt P15941-7); experiment: thermal denaturation (SYBR Green I); 1:1000 aptamer:peptide; Tm 20 and 45 to 16 °C; Ru displacement: 50 nM aptamer in binding solution (composition not given), excitation 434 nm, emission 610 nm; thermal assay: binding solution, 1 h ambient then SYBR Green I, 3-100 °C; cells: PBS, 4 °C, 1 h; details: hairpin (m-fold)
T1 chain: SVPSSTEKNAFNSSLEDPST

[7] = biological target: T2, MUC1/Y 10mer peptide (UniProt P15941-7); experiment: thermal denaturation (SYBR Green I); 1:1000 aptamer:peptide; Tm 20 and 45 to 26 °C; Ru displacement: 50 nM aptamer in binding solution (composition not given), excitation 434 nm, emission 610 nm; thermal assay: binding solution, 1 h ambient then SYBR Green I, 3-100 °C; cells: PBS, 4 °C, 1 h; details: hairpin (m-fold)
T2 chain: TEKNAFNSSL

[8] = biological target: T1, MUC1/Y 20mer peptide; experiment: thermal denaturation (SYBR Green I); 1:1000 aptamer:peptide; Tm 21 to 16 °C; Ru displacement: 50 nM aptamer in binding solution (composition not given), excitation 434 nm, emission 610 nm; thermal assay: binding solution, 1 h ambient then SYBR Green I, 3-100 °C; cells: PBS, 4 °C, 1 h
[9] = biological target: T2, MUC1/Y 10mer peptide; experiment: thermal denaturation (SYBR Green I); 1:1000 aptamer:peptide; Tm 21 to 7 and 20 °C; Ru displacement: 50 nM aptamer in binding solution (composition not given), excitation 434 nm, emission 610 nm; thermal assay: binding solution, 1 h ambient then SYBR Green I, 3-100 °C; cells: PBS, 4 °C, 1 h
[10] = biological target: T1, MUC1/Y 20mer peptide; experiment: Ru(phen)2dppz fluorescence displacement; 1.5 µM Ru dye; Kd only in Figure 2C; Ru displacement: 50 nM aptamer in binding solution (composition not given), excitation 434 nm, emission 610 nm; thermal assay: binding solution, 1 h ambient then SYBR Green I, 3-100 °C; cells: PBS, 4 °C, 1 h; details: predicted hairpin (m-fold)
[11] = biological target: T1, MUC1/Y 20mer peptide; experiment: thermal denaturation (SYBR Green I); 1:1000 aptamer:peptide; Tm 35 to 30 °C; Ru displacement: 50 nM aptamer in binding solution (composition not given), excitation 434 nm, emission 610 nm; thermal assay: binding solution, 1 h ambient then SYBR Green I, 3-100 °C; cells: PBS, 4 °C, 1 h; details: predicted hairpin (m-fold)
[12] = biological target: T2, MUC1/Y 10mer peptide; experiment: thermal denaturation (SYBR Green I); 1:1000 aptamer:peptide; Tm 35 to 43 °C; Ru displacement: 50 nM aptamer in binding solution (composition not given), excitation 434 nm, emission 610 nm; thermal assay: binding solution, 1 h ambient then SYBR Green I, 3-100 °C; cells: PBS, 4 °C, 1 h; details: predicted hairpin (m-fold)
[13] = biological target: T1, MUC1/Y 20mer peptide; experiment: Ru(phen)2dppz fluorescence displacement; 2 µM Ru dye; Kd only in Figure 2C; Ru displacement: 50 nM aptamer in binding solution (composition not given), excitation 434 nm, emission 610 nm; thermal assay: binding solution, 1 h ambient then SYBR Green I, 3-100 °C; cells: PBS, 4 °C, 1 h; details: predicted hairpin (m-fold)

Sequence of MUC1 variable tandem repeat (VTR) peptide (P15941 whole entry): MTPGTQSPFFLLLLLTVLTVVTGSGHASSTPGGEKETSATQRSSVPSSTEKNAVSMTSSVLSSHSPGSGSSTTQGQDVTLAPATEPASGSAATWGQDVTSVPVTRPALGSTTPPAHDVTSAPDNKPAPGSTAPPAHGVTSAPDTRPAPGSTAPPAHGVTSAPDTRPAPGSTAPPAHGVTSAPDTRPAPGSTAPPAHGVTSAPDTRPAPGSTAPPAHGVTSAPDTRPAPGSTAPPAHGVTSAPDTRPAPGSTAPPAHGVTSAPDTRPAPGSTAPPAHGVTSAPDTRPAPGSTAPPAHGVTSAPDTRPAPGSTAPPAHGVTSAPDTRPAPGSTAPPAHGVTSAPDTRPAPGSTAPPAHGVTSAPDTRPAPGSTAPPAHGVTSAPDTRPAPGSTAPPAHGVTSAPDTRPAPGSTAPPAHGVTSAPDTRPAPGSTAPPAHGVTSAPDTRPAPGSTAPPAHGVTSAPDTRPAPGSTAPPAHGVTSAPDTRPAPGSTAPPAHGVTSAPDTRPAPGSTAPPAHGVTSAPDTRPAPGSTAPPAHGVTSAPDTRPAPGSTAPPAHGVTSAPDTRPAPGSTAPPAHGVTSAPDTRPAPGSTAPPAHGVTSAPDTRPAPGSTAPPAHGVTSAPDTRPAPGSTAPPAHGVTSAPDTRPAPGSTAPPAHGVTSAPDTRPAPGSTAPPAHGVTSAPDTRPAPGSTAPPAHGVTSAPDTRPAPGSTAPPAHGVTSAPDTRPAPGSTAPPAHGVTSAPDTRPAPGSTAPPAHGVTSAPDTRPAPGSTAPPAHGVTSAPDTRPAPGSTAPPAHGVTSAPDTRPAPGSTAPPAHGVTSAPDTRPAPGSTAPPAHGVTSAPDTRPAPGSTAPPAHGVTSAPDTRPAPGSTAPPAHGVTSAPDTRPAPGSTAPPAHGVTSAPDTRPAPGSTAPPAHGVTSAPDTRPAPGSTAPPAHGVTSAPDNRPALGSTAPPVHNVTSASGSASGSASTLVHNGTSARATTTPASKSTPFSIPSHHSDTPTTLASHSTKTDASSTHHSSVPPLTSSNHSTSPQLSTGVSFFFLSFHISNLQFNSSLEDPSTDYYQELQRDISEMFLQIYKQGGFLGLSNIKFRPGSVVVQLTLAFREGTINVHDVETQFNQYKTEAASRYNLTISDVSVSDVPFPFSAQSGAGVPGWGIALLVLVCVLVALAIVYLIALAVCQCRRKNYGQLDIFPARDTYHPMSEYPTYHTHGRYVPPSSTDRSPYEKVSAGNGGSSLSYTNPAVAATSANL

GGCAACATACTGTAAAGCTCAGGAC [S11b (S11 variable region)]
binding signal (fold more peptide than MUC1/Y peptide) [1]: > 100 | Kd [2]: > 250000 nM

[Ru+2].c1ccc2nc3c4cccnc4c4ncccc4c3nc2c1.c1cnc2c(c1)ccc1cccnc12.c1cnc2c(c1)ccc1cccnc12
Kd [3]: 350 nM | Kd [4]: 440 nM | Kd [5]: 240 nM

ACTGTAAAGCTCAGGACTTCGACAGG (ssDNA) [S11c (S11 hairpin region)]
binding result [6]: binds | binding result [7]: binds

GGCAACATACTGTAAAGCTCAGGAC (ssDNA) [S11b (S11 variable region)]
binding result [8]: binds | binding result [9]: binds

B1: S51a (S51 full length) (ssDNA)
DNA: GGGAGACAAGAATAAACGCTCAAAGATAAAAAGGCTGTCTGAAAATTTTCGACAGGAGGCTCACAACAGGC
binding result [10]: binds

B2: S11a (S11 full length) (ssDNA)
DNA: GGGAGACAAGAATAAACGCTCAAGGCAACATACTGTAAAGCTCAGGACTTCGACAGGAGGCTCACAACAGGC
binding result [11]: binds | binding result [12]: binds

B3: S75a (S75 full length) (ssDNA)
DNA: GGGAGACAAGAATAAACGCTCAACTGGTATCTATATGAAGGTTGTAGCTTCGACAGGAGGCTCACAACAGGC
binding result [13]: binds
